Data taken from patent US7262177B2, “Conjugates of glycosylated/galactosylated peptide, bifunctional linker, and nucleotidic monomers/polymers, and related compositions and methods of use” (priority 2000, dated 2007).
Where two headings read alike, the source gives them in different places.

Experiments:
Hep G2 cells = assay: Inhibition of Hep G2 cellular proliferation (cell counting), 1-mer conjugates; type: cell-based, human
Protocol: Hep G2 cells were seeded into a 48-well plate in RPMI supplemented with 10% FCS at a density of 5×10^4 cells/well. Cells were then allowed to incubate at 37° C., 95% RH, 5% CO2 for 24 hrs. After this incubation period, the maintainence medium was aspirated and cells were treated with various concentrations of neoglycoconjugate in 200 μl of RPMI supplemented with 10% FCS. Control wells were treated with 200 μl of RPMI+10% FCS alone. At 0, 24, 48, 72 and 96 hrs, six wells for each condition were washed twice with 0.5 ml of DPBS and treated with 0.5 ml of trypsin (0.25%; prepared in HBSS with 1.0 mM EDTA). Cell number for each condition were determined a using a Coulter electronic cell counter. In all cases, the extent of inhibition of proliferation increased as a function of time. […] Therefore, the type of linkage that conjugates the nucleotide analog to YEE(ahGalNAc)3 influences the ability to inhibit proliferation.

TS = target: T1, TS (Mus musculus, UniProt P07607); assay: TS activity in liver of xenografted mice; type: in vivo, CD-1 nude mice; conditions: treated
T1 construct: from tissue; host or cells: liver of CD-1 nude mice
Protocol: Initial effects of po 1-mer treatment were noticed after about 5 weeks. Overall, however, tumors continued to grow after this point, but at a slower rate than the control. For instance, at 8 weeks post po 1-mer treatment, the average tumor weight of xenografted human hepatomas in nude CD-1 mice was about 7 g, whereas the average tumor weight of the saline control was about 15 g. Histological analysis was performed after 8 weeks in order to compare the tumors of the control cohort with the tumors of po 1-mer-treated nude mice. […] This weight loss may then be due to the tumor burden, rather than the therapeutic treatment, and was continued through week 8.
After the treatment was completed, tumors were analyzed both histologically and for TS activity. […] Therefore, it can be deduced that increasing the dose of po 1-mer increased the efficacy without increasing systemic toxicity.

[1] = Serum stability of 35S labeled po 1-mer conjugate, PAGE analysis; type: in vitro ADME; conditions: human serum, 37° C.
Protocol: Studies were carried out at physiological conditions. The analyses were accomplished using reversed-phase HPLC and PAGE methods. The raw data are presented in table format (Tables 1, 2 and 3). The serum half-life calculated is t1/2=1/k (0.693), derived from the [A]=[A0]e^−kt, where [A0] is the original amount of substrate, [A] is the measured substrate level, t is time (min), and k is the first-order rate constant.
Reaction Conditions: 2 μl of human serum were added to 200,000 cpm of dry ^35S labeled po 1-mer conjugate. Radiolabeled conjugate was incubated at 37° C. in the presence of this serum for the allotted time periods (15 min, 30 min, 60 min, 120 min, 240 min). The reaction mixture was diluted with 2 μl of H2O, then 4 μl of loading buffer. The degradation pattern was observed through autoradiography of a 20% polyacylamide gel (0.75 mm) run at 800 V for 90 min. Bands were quantified through the use of a Fujix BAS 2000 Phosphorimager (Table 3).

[2] = target: T2, thymidylate synthase (TS) (Homo sapiens, UniProt P04818); assay: Thymidylate synthase activity in treated TSU cells; type: cell-based; conditions: TSU carcinoma cells, 1 μM
T2 construct: endogenous in cells; host or cells: Hep G2
Protocol: Thymidylate synthase inhibition results in insufficient thymidylate levels for DNA replication and can lead to intracellular signaling processes that ultimately lead to cell death. The activity of this paramount enzyme was determined based on the methods of Keyomarsi et al. (J. Biol. Chem., 268, 15142-15149 (1993)). Briefly, 10^5 Hep G2 or TSU cells were grown in culture for 48 h and then the medium was made to a concentration of 1 μM with either po 1-mer or unconjugated 5FdU. At regular intervals (24 hrs, 48 hrs, 72 hrs and 96 hrs) after treatment, the medium was removed and replaced with medium containing deoxyuridine/[^3H]-deoxyuridine mixtures. Cells were incubated at 37° C. for 30 min. Cell medium was then removed and precipitated with charcoal. The supernatant was then counted to determine the presence of [^3H]-H2O. The measurable release of [^3H] as [^3H]-H2O from deoxyuridine, 5′-monophosphate (dUMP) substrate reflects thymidylate synthase activity.
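For % injected dose in LIVER in this document: male CD-1 mice given radiolabeled test agent intravenously, organs removed at each time point and dissolved, radioactivity per organ measured by scintillation counting with efficiency correction.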

T1 sequence (P07607 whole entry): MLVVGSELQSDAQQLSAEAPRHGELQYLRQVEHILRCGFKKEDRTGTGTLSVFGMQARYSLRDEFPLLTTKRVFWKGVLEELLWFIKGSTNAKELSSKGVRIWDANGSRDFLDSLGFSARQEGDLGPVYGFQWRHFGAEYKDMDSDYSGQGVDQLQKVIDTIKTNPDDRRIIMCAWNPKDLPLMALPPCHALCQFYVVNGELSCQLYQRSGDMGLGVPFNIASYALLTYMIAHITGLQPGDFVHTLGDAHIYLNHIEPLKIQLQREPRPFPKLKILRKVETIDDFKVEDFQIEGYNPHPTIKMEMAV
T2 sequence (P04818 2-313 limits assumed): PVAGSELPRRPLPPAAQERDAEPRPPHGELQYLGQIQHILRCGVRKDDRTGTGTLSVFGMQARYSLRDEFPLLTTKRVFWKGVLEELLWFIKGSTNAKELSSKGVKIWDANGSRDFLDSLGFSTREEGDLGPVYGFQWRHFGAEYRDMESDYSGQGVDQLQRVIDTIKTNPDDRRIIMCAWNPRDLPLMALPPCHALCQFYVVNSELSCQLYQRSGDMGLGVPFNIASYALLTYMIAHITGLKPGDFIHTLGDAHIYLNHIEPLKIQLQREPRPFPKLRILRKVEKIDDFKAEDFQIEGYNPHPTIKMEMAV

Question: Which “% injected dose in LIVER” value (15 MIN after tail vein i.v.) does the source give for CC(=O)N[C@H]1[C@H](OCCCCCCNC(=O)CC[C@H](NC(=O)CC[C@H](NC(=O)[C@H](Cc2ccc(O)cc2)NC(=O)C2CCC(CN3C(=O)CC(SCCCCCCOP(=O)(O)OC[C@H]4O[C@@H](n5cc(F)c(=O)[nH]c5=O)C[C@@H]4O)C3=O)CC2)C(=O)NCCCCCCO[C@@H]2O[C@H](CO)[C@H](O)[C@H](O)[C@H]2NC(C)=O)C(=O)NCCCCCCO[C@@H]2O[C@H](CO)[C@H](O)[C@H](O)[C@H]2NC(C)=O)O[C@H](CO)[C@H](O)[C@@H]1O (some centres unmarked) [po 1-mer, YEE(ahGalNAc)3-SMCC-poFU] here?
Answer: Fifty-seven

Question: And the “% injected dose in LIVER” value (60 MIN after tail vein i.v.)?
Answer: 25%

Question: What about the “% injected dose in LIVER” value (480 MIN after tail vein i.v.) of the same compound?
Answer: virtually no

Question: And the inhibition of proliferation (Hep G2 cells; 1 μM, compared to untreated control, listed as po-linked conjugate)?
Answer: 64%

Question: And the “more active than the ps-linked conjugate” value (Hep G2 cells; in vitro proliferation of Hep G2 cells)?
Answer: approximately 30%

Question: And the “TS activity, COUNTS/MG PROTEIN” value (TS; weekly 10 mg/kg)?
Answer: 19718 counts/mg protein

Question: And the “TS activity, COUNTS/MG PROTEIN” value (TS; weekly 15 mg/kg)?
Answer: 18989 counts/mg protein

Question: What about the “Normalized Area” value ([1]; 0 min) of the same compound?
Answer: 0

Question: What about the “Pixel Area” value ([1]; 0 min) of the same compound?
Answer: 42.57

Question: And the “Standardized Area” value ([1]; 0 min)?
Answer: 1

Question: And the “Normalized Area” value ([1]; 15 min)?
Answer: 0.1486

Question: And the “Pixel Area” value ([1]; 15 min)?
Answer: 57.43

Question: What about the “Standardized Area” value ([1]; 15 min) of the same compound?
Answer: 0.8514

Question: And the “Normalized Area” value ([1]; 30 min)?
Answer: 0.2404

Question: And the “Pixel Area” value ([1]; 30 min)?
Answer: 66.61

Question: What about the “Standardized Area” value ([1]; 30 min) of the same compound?
Answer: 0.7596

Question: And the “Normalized Area” value ([1]; 60 min)?
Answer: 0.3435

Question: And the “Pixel Area” value ([1]; 60 min)?
Answer: 76.92

Question: What about the “Standardized Area” value ([1]; 60 min) of the same compound?
Answer: 0.6565

Question: And the “Normalized Area” value ([1]; 120 min)?
Answer: 0.39

Question: What about the “Pixel Area” value ([1]; 120 min) of the same compound?
Answer: 81.57

Question: What about the “Standardized Area” value ([1]; 120 min) of the same compound?
Answer: 0.61

Question: What about the “Normalized Area” value ([1]; 240 min) of the same compound?
Answer: 0.3756

Question: And the “Pixel Area” value ([1]; 240 min)?
Answer: 80.13

Question: And the “Standardized Area” value ([1]; 240 min)?
Answer: 0.6244

Question: And the “inhibition of TS activity” value [2]?
Answer: no inhibitory effect
